According to patent publication US10577406B2, “FKBP-L polypeptides and uses in angiogenesis-mediated disorders” (ALMAC DISCOVERY LIMITED, priority 2006, dated 2020):

Key:
HMEC-1 = assay: cell adhesion assay on Matrigel (MTT readout); assay type: cell-based, Human; settings: 1 h at 37° C.
Method: A 96-well plate was pre-coated with a thin layer of Matrigel which was allowed to set overnight. The plate wells were blocked with 0.5% BSA for 1 h at 37° C. in a 95% air/5% CO2 incubator. Human microvascular endothelial cells (HMEC-1) were trypsinised and re-suspended in fresh medium and seeded at a density of 20000 cells per well. The plates were placed at 4° C. for 10 min to allow the cells to sediment to the bottom of the wells. The required amount of medium supplemented with the FKBP-L 24mer was added to each well and the plate incubated for 1 h at 37° C. The excess medium and unattached cells were removed and the wells washed three times with sterile PBS. The wells were supplemented with fresh medium and MTT added (5 mgml^−1). The plate was incubated for a further 4 h at 37° C. DMSO was added to each well to solubilise the MTT to formazen and the plate read at 540nm, with the relative absorbance of control wells compared to FBKP-L 24mer-supplemented wells.

[1] = system: MDA-231 (breast; CD44+ve); assay: cell invasion in a modified Boyden chamber system, MDA-231; assay type: cell-based; settings: 24 h
Method: Twelve well plate polycarbonate inserts were divided into two groups with half remaining uncoated and half coated with 100 μg/cm^2 of Matrigel. The coated inserts were allowed to dry overnight at room temperature in a sterile tissue culture hood. The required cell line; HMEC-1, PC3 or MDA231 was trypsinised, re-suspended in fresh medium and the cell number calculated. 5×10^5 cells, in a total volume of 500 μl, were added to the insert (top chamber) and 1.5 ml of complete medium added to the bottom chamber of the plate as a stimulus for invasion. FKBP-L 24mer was added to both the upper and lower chamber of the plate at the required concentration in the experimental wells. The plate was incubated for 24 h (PC3 or MDA231) or 48 h (HMEC-1).
The inserts were carefully removed from their 12 well plate and inserts without Matrigel coating were placed directly into Carnoys fixative. […]
The polycarbonate inserts were cut from the holders and placed on to mounting medium on a microscope slide. […] The slides were stored at 4° C. until analysed.
Ten images from each insert were captured and the number of fluorescent cells per image was analysed by Lucia Imaging software. The ratio of cells visible on non-coated inserts compared to cells visible on Matrigel coated inserts was expressed as % invasion. […]

[2] = system: MCF-7 (breast tumor cell line; CD44 −ve); assay: tumor cell migration, wound closure assay, MCF-7; assay type: cell-based; settings: MCF-7 (CD44 −ve); 24 h
Method: (§1) The in vitro migration assay used in these studies is a modified version of the method described by Ashton et al. (1999) see supra. PC3 (prostate tumor cell line; CD44 positive; CD44 +ve), MDA231 (breast tumor cell line; CD44 +ve), HT29 (Colorectal tumor cell line; CD44 +ve), MCF-7 (breast tumor cell line; CD44 negative; CD44 −ve) and DU145 (prostate tumor cell line; CD44 −ve) were plated into individual chambers on a glass slide and grown to 90% confluence overnight. The medium was removed and the monolayers wounded. […] The monolayers were incubated for 24 h and then fixed in 4% PBS buffered paraformaldehyde.
(§2) The extent of “wound” closure was blindly assessed microscopically by an independent investigator and quantified using a calibrated eyepiece graticule (1 mm/100 μm graduation) at 20× magnification (Olympus BX 50). The extent of closure in the FKBP-L treated slides was compared to time matched sham treated controls and the % inhibition of wound closure compared to time matched controls calculated.

[3] = system: DU145 (prostate tumor cell line; CD44 −ve); assay: tumor cell migration, wound closure assay, DU145; assay type: cell-based, human; settings: 24 h
Method: as §1, §2

[4] = system: HT29 (Colorectal tumor cell line; CD44 +ve); assay: tumor cell migration, wound closure assay, HT29; assay type: cell-based; settings: 24 hours
Method: In these experiments, the effect of recombinant FKBP-L on tumor cell migration was assessed. The in vitro migration assay used in these studies is a modified version of the method described by Ashton et al (1999) see supra. PC3, MDA231, and HT29 tumor cells were plated into individual chambers on a glass slide and grown to 90% confluence overnight. The medium was removed and the monolayers wounded. The monolayer was re-supplemented with fresh medium and the required volume of His-tagged recombinant FKBP-L protein (SEQ ID NO: 1) was added to give the final concentrations shown. The monolayers were incubated for 24 hours and then fixed in 4% PBS buffered paraformaldehyde.
The extent of “wound” closure was blindly assessed microscopically by an independent investigator and quantified using a calibrated eyepiece graticule (1 mm/100 μm graduation) at 20× magnification (Olympus BX 50). The extent of closure in the FKBP-L treated slides was compared to time matched sham-treated controls and the percent inhibition of wound closure compared to time matched controls calculated. […]
The extent of “wound” closure was blindly assessed microscopically by an independent investigator and quantified using a calibrated eyepiece graticule (1 mm/100 μm graduation) at 20× magnification (Olympus BX 50). […]

Row | Molecule | effect on cell adhesion (HMEC-1) | effect on cell invasion through Matrigel [1] | effect on tumor cell migration [2] | effect on tumor cell migration [3] | effect on tumor cell migration [4]
1 | H-QIRQQPRDPPTETLELEVSPDPAS-OH [FKBP-L 24mer] | potent inhibitor of HMEC-1 adhesion | potent inhibitor |  |  | 
2 | full length recombinant FKBP-L: recombinant full length his-tagged FKBP-L protein (SEQ ID NO: 1) expressed in BL21 (DE3) (protein, listed as Homo sapiens, His tag) MRGSHHHHHHGMASMTGGQQMGRDLYDDDDKDRWGSMETPPVNTIGEKDTSQPQQEWEKNLRENLDSVIQIRQQPRDPPTETLELEVSPDPASQILEHTQGAEKLVAELEGDSHKSHGSTSQMPEALQASDLWYCPDGSFVKKIVIRGHGLDKPKLGSCCRVLALGFPFGSGPPEGWTELTMGVGPWREETWGELIEKCLESMCQGEEAELQLPGHTGPPVGLTLASFTQGRDSWELETSEKEALAREERARGTELFRAGNPEGAARCYGRALRLLLTLPPPGPPERTVLHANLAACQLLLGQPQLAAQSCDRVLEREPGHLKALYRRGVAQAALGNLEKATADLKKVLAIDPKNRAAQEELGKVVIQGKNQDAGLAQGLRKMFG |  |  | not in CD44 −ve tumor cell lines | not in CD44 −ve tumor cell lines | inhibits tumor cell migration in a dose-dependent manner
